Each block holds one binder with its values, some of them ahead of it.
Columns and labels:
[1] = target: T1, human CD33-His (extracellular domain Asp 18-His 259) (human, UniProt P20138 18-259); assay: competitive ELISA vs coated S006-NB146-60 2ug/mL; soluble 25ug/ml
T1 construct: range 18-259; bought protein; also called hCD33-his; human CD33 protein; not shown: His tag
Description: (§1) VHH antibodies and control antibodies with known epitopes were subjected to epitope classification with competitive ELISA. ELISA plates were coated with 2 μg/mL antibodies according to the method in Example 5.1; the human CD33-his protein was subjected to a gradient dilution from 30 μg/mL, and EC80 values (Tables 26-27) were calculated. ELISA plates were coated with 2 μg/mL antibodies; after 25 µg/mL of antibodies to be tested were added, a human CD33-his protein having an EC80 concentration corresponding to each of the antibodies to be tested was then added for incubation for 2 h. The plates were washed 5 times with PBS, then HRP-labeled anti-His antibodies (purchased from GenScript, Cat. No. A00612) were added for incubation for 1 h, and the plates were washed 5 times. A TMB substrate was added at 50 μL/well and incubated at room temperature for 10 min, then a stop solution (1.0 M HCl) was added at 50 μL/well. OD_{450 nm} values were read using an ELISA plate reader (Insight, purchased from PerkinElmer), and the competition rate between the antibodies was calculated according to the OD_{450 nm} values using a formula. The results are shown in FIGS. 12A-12B, the higher the value of the competition rate, the closer the epitopes to which two antibodies bind.

[2] = target: T1, human CD33-His (extracellular domain …); assay: competitive ELISA vs coated S006-NB146-16 3ug/mL; soluble 25ug/ml
[3] = target: T1, human CD33-His (extracellular domain …); assay: competitive ELISA vs coated S006-NB146-1 2ug/mL; soluble 25ug/ml
Description: as §1

[4] = target: T2, human CD33-his protein (human, UniProt P20138 18-259); assay: competition ELISA, coated human CD33-his, vs Biotin-C33B904 at EC80; antibody 62.50 nM
T2 construct: range 18-259; bought protein; also called hCD33-his; recombinant human CD33-his; not shown: His tag
T2 sequence (P20138 18-259 limits assumed): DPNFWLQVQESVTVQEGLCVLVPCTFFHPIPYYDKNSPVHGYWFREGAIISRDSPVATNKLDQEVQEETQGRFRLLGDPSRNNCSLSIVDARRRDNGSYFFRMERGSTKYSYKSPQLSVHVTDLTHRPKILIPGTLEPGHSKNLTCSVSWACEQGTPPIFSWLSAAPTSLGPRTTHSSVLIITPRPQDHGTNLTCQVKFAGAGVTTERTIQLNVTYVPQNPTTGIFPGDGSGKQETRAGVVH
Description: ELISA plates were coated with 2 μg/mL human CD33-his protein according to the method in Example 5.1; the Biotin-C331B904 antibody was subjected to a gradient dilution from 15 μg/mL, and EC80 values (0.18 μg/mL) were calculated. ELISA plates were coated with 2 μg/mL human CD33-his protein; starting from 40 μg/mL, the VHH antibodies to be tested were diluted in a 1:2 dilution ratio to obtain seven concentrations and added to the ELISA plates, and then Biotin-C331904 antibodies with the EC80 concentrations were added for incubation for 2 h. The plates were washed 5 times with PBS and then […] (purchased from Sigma, Cat. No. S2438) were added for incubation for 1 h, and the plates were washed 5 times. A TMB substrate was added at 50 μL/well and incubated at room temperature for 10 min, then a stop solution (1.0 M HCl) was added at 50 μL/well. OD_{450 nm} values were read using an ELISA plate reader (Insight, purchased from PerkinElmer). Then, analysis was performed by software (GraphPad Prism8), and data were fitted for curve plotting. The results are shown in FIGS. 13A-13B and Tables 28 and 29.

T1 sequence (P20138 18-259 limits assumed): as above

inhibition rate [1]: 8%
inhibition rate [2]: 100%
inhibition rate [3]: 100%
B1: C33B904 hIgG1 (antibody, V domains shown)
VH: EVQLVESGGGLVQPGRSLRLSCAASGFTFDDYAMHWVRQAPGKGLEWVSGIGWSGGSIVYADSVKGRFTISRDNAKNSLYLQMNSLRAEDTALYYCAKDSPYGDFFDYWGQGTLVTVSS
VL: DIVMTQSPDSLAVSLGERATINCKSSQTVFYSSNNKNYLAWYQQKPGQPPKLLISWASTRKSGVPDRFSGSGSGTDFTLTVSSLQAEDVAVYYCQHYYSTPYTFGQGTKLEIKR
notes: intact human IgG1; variable regions from US20190382481A1; also called C33B3904; C331B904

OD450 (Biotin-C33B904 signal) [4]: 0.32
B2: C33B904 (antibody, human IgG1, kappa, V domains shown)
VH: B1 VH
VL: B1 VL
notes: control antibody, intact human IgG1 form; variable regions from US20190382481A1; also called C33B904 hIgG1; C331B904

From patent US20240124575A1 (SIMCERE ZAIMING PHARMACEUTICAL, published 2024)
